These results are taken from publication PMC3654694 (Immunity, 2012).

Data set [1] deals with the molecule itself.
The target of data set [2] is T1, STING CTD (STINGΔ1-138, AA139-379), His-tag removed (human), Q86WV6.
T1 chain: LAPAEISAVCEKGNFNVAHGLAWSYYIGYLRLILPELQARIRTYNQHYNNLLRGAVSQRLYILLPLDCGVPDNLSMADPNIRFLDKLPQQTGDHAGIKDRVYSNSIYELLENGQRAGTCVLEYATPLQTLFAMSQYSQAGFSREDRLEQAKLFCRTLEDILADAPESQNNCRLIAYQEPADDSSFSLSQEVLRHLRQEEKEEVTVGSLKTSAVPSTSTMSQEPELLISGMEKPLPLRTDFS
Description: AUC. The conditions noted are these: remark: other sources report otherwise.

The data set “SEC” deals with the molecule itself. The experiment in a line: SEC.
The target of data set [3] is T2, STING CTD WT (AA139-379) with His-tag (human), Q86WV6.
T2 chain: T1 chain
Description: SEC. The note with it: remark: other sources report otherwise.

Numbering of substitutions follows the chain as printed. Numbers in names are those of the source. Read-outs that look alike come from different tables or passages of the source.

B1: STINGΔ1-148 (AA149-379) (domain or fragment, human, UniProt Q86WV6 149-379, looked up)
chain: EKGNFNVAHGLAWSYYIGYLRLILPELQARIRTYNQHYNNLLRGAVSQRLYILLPLDCGVPDNLSMADPNIRFLDKLPQQTGDHAGIKDRVYSNSIYELLENGQRAGTCVLEYATPLQTLFAMSQYSQAGFSREDRLEQAKLFCRTLEDILADAPESQNNCRLIAYQEPADDSSFSLSQEVLRHLRQEEKEEVTVGSLKTSAVPSTSTMSQEPELLISGMEKPLPLRTDFS
Usually stoichiometry N stands for the number of molecules, sites or subunits per partner or assembly. As to B1, in data set [1], the “stoichiometry N” value stood at 2.

B2: STING CTD (STINGΔ1-138, AA139-379), His-tag removed, Q86WV6 139-379 (domain or fragment)
chain: T1 chain
On to B2, for which, in data set [2], the stoichiometry N worked out at 2.

B3: STING CTD K150A (domain or fragment, human, UniProt Q86WV6 139-379, looked up)
chain: T1 chain with K12A
For B3, the “stoichiometry N” value in “SEC” is 2.

B4: STING CTD WT (AA139-379) with His-tag, Q86WV6 139-379 (domain or fragment)
chain: T1 chain
Molecule B4 returned a stoichiometry N in data set [3] of 2.

B5: STING CTD K150L (domain or fragment, human, UniProt Q86WV6 139-379, looked up)
chain: T1 chain with K12L
As for B5, the “stoichiometry N” value in “SEC” amounted to 2.

B6: STING CTD K150R (domain or fragment, human, UniProt Q86WV6 139-379, looked up)
chain: T1 chain with K12R
On to B6, for which the “stoichiometry N” value in “SEC” turned out to be 2.
